Measured values reported in publication PMC2777755.
Where two headings read alike, the source gives them in different places. Values belong to the substance of their own block, whether it stands above or below them.

What was measured:
[1] = target: Kss1 (Saccharomyces cerevisiae) (UniProt P14681); settings: cited from earlier work
[2] = target: Fus3 (Saccharomyces cerevisiae) (UniProt P16892); settings: cited from earlier work
[3] = target: Ste5 minimal scaffold domain (Ste5-ms), fluorescein-labeled (S. cerevisiae) (UniProt P32917); test: fluorescence polarisation
[4] = target: Fus3 (Saccharomyces cerevisiae) (UniProt P16892); settings: cited from earlier work; remark: listed apart in the source

Sequence of UniProt P16892 (P16892 whole entry, the tested form may be a part): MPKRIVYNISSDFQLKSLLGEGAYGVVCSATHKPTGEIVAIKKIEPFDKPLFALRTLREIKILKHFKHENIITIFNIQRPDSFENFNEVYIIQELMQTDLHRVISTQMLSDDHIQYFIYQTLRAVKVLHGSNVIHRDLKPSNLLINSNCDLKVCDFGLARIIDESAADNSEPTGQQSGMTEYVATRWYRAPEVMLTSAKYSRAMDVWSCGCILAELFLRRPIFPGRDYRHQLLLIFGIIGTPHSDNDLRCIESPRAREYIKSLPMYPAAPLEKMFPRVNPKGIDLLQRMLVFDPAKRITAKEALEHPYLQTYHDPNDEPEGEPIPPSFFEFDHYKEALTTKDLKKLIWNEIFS
Sequence of UniProt P14681 (P14681 whole entry): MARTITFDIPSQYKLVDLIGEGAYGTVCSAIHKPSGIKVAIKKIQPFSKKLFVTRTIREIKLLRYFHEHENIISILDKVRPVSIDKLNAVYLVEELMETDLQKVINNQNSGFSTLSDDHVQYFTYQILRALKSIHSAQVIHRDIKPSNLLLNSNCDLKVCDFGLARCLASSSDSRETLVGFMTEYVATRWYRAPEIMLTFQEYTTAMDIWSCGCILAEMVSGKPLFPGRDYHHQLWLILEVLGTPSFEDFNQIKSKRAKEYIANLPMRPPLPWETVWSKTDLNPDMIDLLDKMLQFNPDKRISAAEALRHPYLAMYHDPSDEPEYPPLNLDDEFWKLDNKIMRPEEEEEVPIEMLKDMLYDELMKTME

Substance: Ste7 docking motif (from UniProt P06784)
Kd [1]: 100 nM
Kd [2]: 100 nM

Kd [3]: 75 nM
Substance: MAPKK Ste7 (from UniProt P06784 1-515) (enzyme)

Substance: Ste5 288-316 (from UniProt P32917)
Kd [4]: 1000 nM
